Data as given in the nanobody polyreactivity screen of Harvey et al. (2022).

Experiment: yeast display, Sf9 membrane polyspecificity reagent, FACS + sequencing; frameworks hold sequencing errors
Procedure, shortened: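 Nanobodies came from a synthetic yeast display library in Saccharomyces cerevisiae BJ5465, induced with galactose for 36–48 hours and stained for 1 hour at 4 °C with 10% biotinylated, detergent-solubilized Sf9 membrane reagent. Cells were enriched on streptavidin microbeads and then FACS-sorted, with low and high (top ~1%) gates set on anti-HA fluorescence for expression and streptavidin fluorescence for reagent binding. Each polyreactivity label reflects the gate a clone came from. Genes were amplified by colony PCR, sequenced by MiSeq 2 × 250 and filtered by CDR length.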

| Sequence | polyreactivity (PSR sort gate) |
| --- | --- |
| QVQLVESGGGLVQAGGSLRLSCAASGNTFSGTTMGWYRQAPGKERELVAAIRFTGGSTTYADSVKGRFTISRDNAKNTVYLQMNRLKPEDTAVYYCNTDWVSFRSIYHEYDYWGQGTQVTVSS | low polyreactivity |
| QVQLVESGGGLVQAGGSLRLSCAASGLTFFGYPMGWYRQAPGKEREFVADITWSGGSTYYADSVKGRFTISRDNAKNTVYLQMNSLKPEDTAVYYCAADYHKAEFNYWGQGTQVTVSS | low polyreactivity |
| QVQLVESGGGLVQAGGSLRLSCAASGRIFGAYAMGWYIQAPGKERELVAAIDIRGGNTYYADSVKGRFTISRDNAKNTVYFQMNSQKPVDTAVYYCAADTWYDAYNYWGQGTQVTVSS | low polyreactivity |
| QVQLVESGGGLVQAGGSLRLSCAASGYIFRNVMGWYRQAPGKERELVATISGSGGSTYYADSVKGRFTISRDNAKNTVYLQMNSLKPEDTAVYDCSKRWYRLGRYGGYDYWGQGTQVTVSS | high polyreactivity |
| QVQLVESGGGLVQAGGSLRLSCAASGRIFTTYAMGWYRQAPGKERELVARITLSAGRTYYADSVKGRFTISRDNAKYSVYLQMNSLKPEDTEVYYCAAEGFYRSSPVRTYIGYDYWGQGTQVTVSS | high polyreactivity |
| QVQLGESGGGLVQAGGSLRLSCAASGSTFIDYAMGWYRQAPGKERELVAAITNGGNTKYADSVKGRFTISRDNAKNTVYLQMNSLKPEDTAVYYCAKYYYTSIVGYDSWGQGTQVTVSS | low polyreactivity |
| KVQLVESGGGLVQAGGSLRLSCAASGNPLLFNALGWYRQAPGKERELVARITSSGASTYYADSVKGRFTISRDNAKNTLYLQMNSLKAEDTAVYYCAARTRTRRGYTSGDYWGQGSQVTVSS | high polyreactivity |
| QVQLVESGGGLVQAGGSLRLSCAASGRTIKKYTMGWSRQAPGKERELVAVITSGGSTYYADSVKGRFTISRDNAKNTVYFQMNSLKPEDTAVYYCAVIYPELRTWGYYFWGQGTQVTVSS | high polyreactivity |
| QVQLVESGGGLVQAGGSLRLSCAASACTFNVNAMGWYRQEAGKERELVAAITNGGITNYADSVKGRFTISRDNAKNTVYLQMNSLKPEDTAVYDCAARTIYKTQSPRPFRRGYWGQGTQVTVSS | high polyreactivity |
| QVQLVESGGGLVQAGGSLRLSCAASGFTFAYYAMGWYRQAPGKERELVAAISYSGGSTYYADSVKGRFTISRDNAKNTVYLQMNSLKPEDTAVYYCAAEAGRRYNWGYDYWGQGTQVTVSS | high polyreactivity |
| QVQLVESGGGLVQAGGSLRLSSAASGFTVKYNTMGSSRQAPGKEREMVAAISWDGTSTYYADSVKGRFTISRDYAKNTVYLQMNSLKPEDTAVYYCATDAVGAWWSYLSGYGYWGQGTQVTVSS | high polyreactivity |
| QVQLVESGGGLVQAGGSLRLSCAASGSILGTYAMGWYRQAPGKERELVAAISWNGGSTYYADSVKGRFTISRDNAKNTVYLQMNSLKPEYTAVYYCAARQWSQGWYDYWGQGTQVTLSS | high polyreactivity |
| QVQLQESGGGLVQAGGSLRLSCAATGSIYHLHIMCWYRKAPGKERESVAAISYGTSTYYADSVKGRFTICRDNAKNTVYLQMNSPKPDDTAVYYCAALFLVYKHHHYWGEGTQVTVSS | low polyreactivity |
| QVQLVESGGGLVQAGGSLRLSCAASGRTFGYYTMGWSRQAPGKERDLVATISSDGTTNYADSVKGRFTISRDNAKNTVYLQMNSLKPEDTAVYYCNADFRLQYYYRIYDYWGQGTQVTVSS | low polyreactivity |
| QVQLVESGGGVVQAGGSLRLTCAASGFTFARYATGWYRQAPGKERELVAAITYSGGRTYYADSVKGRFTISRDNAKNTVYLHMNSLKPEDTAVYYCAARQYGPRYTYYYWGQGTQVTVSS | high polyreactivity |
| QVQLVESGGGLFQAGGSLRLSCAASGSTFRANAMGWYRQAPGKETELVAAISQSGGITYYADSVKVRFTISRDNAKNTVYLQMKSLKPEDTAVYYCAALGYRIIRGRFYSWGQGTQVTVSS | high polyreactivity |
| QVQLVESGGGLVQAGGSLRLSCAASGRILPYNVMGWYRQAPGKEREFVAAITGSGGDTYYADSVKGRFTISRDNAKNTVYLQMNSLKPEDTAVYYCAAAPYIGGSFGQTPGSGYWGQGTQVTVSS | low polyreactivity |
| QVQLVESGGGLVQAGRSLRLSCAASGLTFGQYAMGWYRQAPGIERELVAAMNWSGDGTYYADSVKGRFTISRDNAKNTVYLQMKSLKPEDTAVYYCNAGGRRYYYIGYDYWGQGTQLTVSS | low polyreactivity |
| QVQLVESGGGLVQSGGSLRLSCDASGRIFSRYAMGWYIQAPGKEREFVAAISRSGTSTYYADSVKVRFTISRDNAKNTVYLQMNSLKPEDTAVYYCAADYPAVISIRRYDYWGQGTQVTVSS | low polyreactivity |
| QVQLVESGGGLVQAGGSLRLSCAASGNIFDYYAMGWYRQAPGKERELVAAISTGTSTYADSVKGRFTISRDNAKNTVYLQMNSLKPQDTAVYYCAADVGIRPLNYNPYNYWGQGTQVTVSS | low polyreactivity |
| QVQLVESGGCLVQAGGSLRLSCAASGSTINSYAMGCYRQAPGKERELVAAITWIGGNTYYADSVKGRFTISRDNSKNTVYLQMTSLKPEDTAVYYCGADEYFEYYYWGQGTQVTVSS | low polyreactivity |
| QVQLVESGGGLDQARGSLRLSCAASGSIFGENAMGWYRQAPGKERELVAAISTSGGTTYYADSVKGRFTISRDNAKNTVYLQMNSLKPEDTAVYYCAKPYTSFSPYDYWGQGTQVTVSS | low polyreactivity |

| Sequence | polyreactivity (PSR sort gate) |
| --- | --- |
| QVQLVESGGGLVQAGGSLRLSCAASGRTFAKYAMGWYRQAPGKERELVAAISDSGGSTYYADSVKGRFTISRDNAKNTVYLQMNSLKPEDTAVYYCAADGRYTYYWGQGTQVTVSS | high polyreactivity |
| QVQLVESGGGLVQAGGSLRLSCAASGSIFTTYAMGWYRQAPGKERELVAAISSTSGSTYYADSVKGRFTISGDNAKNTVYLQMTSLKPEDTAVYYCAARGGYWGQGTQVTVSS | low polyreactivity |
| QGQLVESGGGLVQAGGSLRLSCAASGRIFRANAMGWYRQAPGKERELVAAIDASGGSTYYADSVKGRFTISRDNAKNTVYLQMNSLKPEDTAVYDCAADRGFLRSFAPGNMDYWGQGTQVTVSS | low polyreactivity |
| QVQLEDSGGGLVQAGGSLRLSCAASGFIFGSYTMGWYRQAPGKERELVAVITWSGSSTYYADSVKGRFTISRDNAKYPVYLQMNSLKPEDTAVYYCNAVKFGGYDYWGQGTQVTVSS | high polyreactivity |
| QVQLVESGGGLVQAGGSLRLSCAPSGRIIGTNAMRWYIQAPRKERELVAAITWSGGSTYYADSVKGRFTISRDNAKNTVFLQMISLKPEDTAVYYCAKDYGYGPRFYYWGQGTQLTVSS | high polyreactivity |
| QVQLVESGGGLVQAGGSLRLSCAASGFNFERYAMGWYRQAPGKERELVAAISSRGGGTYYADSVKGRFTISRDNAKNTVYLQMNSLKPEDTAVYYCNRPYDYSYNYWGQGTQVTVSS | high polyreactivity |
| QVQLVESGGGLVQAGGSLRLSCAASGRIFSNNAMGWYRQAPGKERELVAAISWNGGRTYYADSVKGRFTISRDNAKNTVYLQMNSLKPEDTAVYYCAAGRYDYWGQGTQVTVSS | high polyreactivity |
| QVQLVESGGGLVQAGGSLRLSCAASGRTLVPYAMGWYRQAPGKERELVAAINSSGGSTYYADSVKGRFTISRDNEKNTVYLQMNSLKPEDTAVYYCNVQSVHFRLWKDNYWGQGTQVTVSS | high polyreactivity |
| QVQLVESGGALVQAGGSLRLSCAASGSTLAYNAMGWYRQAPGKERELVAGIRGSGGSTYYADSVKGRFTISRDNAKNTVYLQMNSLKPEDTAVYYCNADSSVGHPPDGEYWGQGTQVTVSS | low polyreactivity |
| QVQLVESGGGLVQAGGSLRLSCAASGSTFTRYAMGWYRPAPGKERELVAAISLSGGDTYYADSVKGRFTISRDNAKNTVYLQMNSLKPEDTAVYYCAARWGYRGYSYEYWGQGTQVTVSS | high polyreactivity |
| QVQLVESGGGLVQAGGSLRLSCAASGSTFIYYAMGWYRKAPGKEREFVAAISYRGGSTYYADSVKGRFTISRDNAKNTVYLQMNSLKPEDTAVYYCAASYRKWNDYWGQGTQVTVSS | high polyreactivity |
| QVQLVESGGGVVQAGGSLRLSCAASGRTFSYNALGWNRQAPGKEREVVAAINGDGGSTYYADSVKGRFTSSRDNAKNTVYLQMNSLKPEDTAVYYCNRRGIYRYGYWGQGTEVTVSS | high polyreactivity |
| QVQLEESGGGLVQAGGSLRLSCAASGGTFDYYAMGWYRQAPRKERELVAVINWSGGRTYYADSVKGRFTISRDNAKNTVYLQMNSLKPEDTAVYYCAAQRPPGQTWNRDYWGQGTQVTVSS | high polyreactivity |
| QVQLVESGGGLVQAGGSLRLSCAASGRIYPKYGMGWYRQAPGKERELVAAITSGTSTYYADSVKGRFTISRDNAKNTVYLQMNSLKPEDTAVYYCAARPTDGSGWPYRWTSDYWGQATQVTVSS | low polyreactivity |
| QVQLVESGGGLVQAGGSLRLSCAASGFTFSYYAMGWYRQAPGKERELVASISRSGNTYYADSVKGRFTISRDNAKNSVYLQMNSLKPEDTAVYYCAAAYKSYYLDGTYYYWGQGTQVTVSS | high polyreactivity |
| QVQLVESGGGLVQAGGSLRLSCAASGSIFYYYAMGWYRQAPGKERELVAAIDASGGSTYYADSVKGRFTISRDNAKNTVYLQMNSLKPEDTAVYYCATRSPRLSRHRRYYSWGQGTQVTVSS | high polyreactivity |
| QVQLVESGGGLVQAGGSLRLSCAASGITFVRNAKGWYRPAPGTERELVAAISSGGSTYYADSVKGRFTISRDNAKNTVYLQMNSLKPEDTAVYYCAVLSSWRFSGYDYWGQGTQVTVSS | low polyreactivity |
| QVQLVESGGGLVQAGSSLRLSCAASGSTLRTNAMGWYRQAPGKEREFVADISKRGGRTYYADSVKGRFTISRDNAKNTVYLQMNSLKPEDTAVYYCAKLVSLAGRIYGYWGQGTQVTVSS | high polyreactivity |
| QVQLVESGGGLVQAGGSLRLSCAASGSTFYRYTMRWYRQAPGKERELVASIRWTGGRTNYADSVKGRFTISRDNAKNTVYLQMNSLKPEDTAVYYCAAYLKYPYAASYGSWGQGTQVTVSS | high polyreactivity |
| QFQLVESGGGLVQAGGSLRLSCAASRFYTMGWSRQAPGKERELVAAISWSGGDTYYADSVKGRFTISRDNAKNTVYLQMTSLKPEDTAVYYCAKKTIGSYVHEPYYYWGHGTQVTVSS | low polyreactivity |
| QVQLVQTGGGLVQAGGSLRLSCAASGRIFYRYDMGCYRQAPGKERSLVAAIRYSGGRTYYADSVKGRFTISRDNAKNTVYLQMNSLKPEDNAVYYCADDEFFWSSEEDYWGQVTQVTVSS | low polyreactivity |
